Columns and labels:
[1] = molecular target: Nup82-Flag-TEV-ProtA (S. cerevisiae, UniProt P40368 1-713); assay: quantitative targeted mass spectrometry
[2] = molecular target: the molecule itself; assay: SEC-MALS
[3] = molecular target: the molecule itself; assay: AUC + SEC
[4] = molecular target: Nup82 (of the Nup82–Nup159tail–Flag-Nsp1C complex) (S. cerevisiae, UniProt P40368 1-713); assay: SEC-MALS
Chain of Nup82 (of the Nup82–Nup159tail–Flag-Nsp1C complex) (P40368 whole entry, one chain of several): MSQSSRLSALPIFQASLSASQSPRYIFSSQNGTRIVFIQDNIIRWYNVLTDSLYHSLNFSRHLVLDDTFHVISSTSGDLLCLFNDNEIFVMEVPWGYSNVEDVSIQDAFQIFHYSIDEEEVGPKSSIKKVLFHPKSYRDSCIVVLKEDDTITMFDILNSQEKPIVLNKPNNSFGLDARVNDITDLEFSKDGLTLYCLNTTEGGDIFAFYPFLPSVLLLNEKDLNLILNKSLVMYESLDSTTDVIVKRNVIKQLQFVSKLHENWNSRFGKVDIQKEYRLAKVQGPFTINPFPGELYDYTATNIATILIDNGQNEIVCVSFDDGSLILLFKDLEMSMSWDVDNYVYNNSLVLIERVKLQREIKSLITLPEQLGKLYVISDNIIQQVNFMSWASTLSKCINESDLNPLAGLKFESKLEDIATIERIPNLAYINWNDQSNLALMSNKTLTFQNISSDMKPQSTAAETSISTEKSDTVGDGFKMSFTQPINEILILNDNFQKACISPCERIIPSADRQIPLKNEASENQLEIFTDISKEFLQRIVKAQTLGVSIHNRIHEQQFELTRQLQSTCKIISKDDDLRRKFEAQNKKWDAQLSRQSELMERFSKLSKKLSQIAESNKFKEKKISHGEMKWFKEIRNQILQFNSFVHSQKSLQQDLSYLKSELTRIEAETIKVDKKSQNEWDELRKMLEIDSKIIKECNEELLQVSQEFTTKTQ

Chain of Nup82-Flag-TEV-ProtA (P40368 whole entry): as the sequence (P40368 whole entry, one chain of several) above

B1: Nsp1C (domain or fragment)
chain: not shown
stoichiometry N [1]: 1

B2: Nup159-QT4–5-Linker-H1 (domain or fragment, S. cerevisiae, UniProt P40477 1150-1244, looked up)
chain: VKKEAVDNGLQTEPVETCNFSVQTFEGDENYLAEQCKPKQLKEYYTSAKVSNIPFVSQNSTLRLIESTFQTVEAEFTVLMENIRNMDTFFTDQSS
stoichiometry N [2]: 4

B3: Nup159C (domain or fragment, S. cerevisiae, UniProt P40477 1082-1460, looked up)
chain: EDINTDELPHGGEAFKAREVSASADFDVQTSLEDNYAESGIQTDLSESSKENEVQTDAIPVKHNSTQTVKKEAVDNGLQTEPVETCNFSVQTFEGDENYLAEQCKPKQLKEYYTSAKVSNIPFVSQNSTLRLIESTFQTVEAEFTVLMENIRNMDTFFTDQSSIPLVKRTVRSINNLYTWRIPEAEILLNIQNNIKCEQMQITNANIQDLKEKVTDYVRKDIAQITEDVANAKEEYLFLMHFDDASSGYVKDLSTHQFRMQKTLRQKLFDVSAKINHTEELLNILKLFTVKNKRLDDNPLVAKLAKESLARDGLLKEIKLLREQVSRLQLEEKGKKASSFDASSSITKDMKGFKVVEVGLAMNTKKQIGDFFKNLNMAK
stoichiometry N [3]: 2 | stoichiometry N [1]: 1

B4: Flag-Nsp1C (domain or fragment)
chain: not shown
stoichiometry N [4]: 1

— PMC4315244 (The Journal of Cell Biology, 2015)
